Experimental findings from patent publication US20250042970A1 (AURINIA PHARMACEUTICALS, published 2025) are described below.

Sequences and labels used below:
B1: BAv49-Ig (Fc fusion)
chain: AGQCSQNEYFDPLIRACIPCQVRCSSNTPPLTCQRYCNAGVTNSVKGTNA
notes: also called BAv49 (3)-Ig; BAv49-pIg18; not shown: PIg18: human IgG2 Fc, Ser at Fc positions 4, 5, 11 (native Cys)
B2: BAv81-Ig (Fc fusion)
chain: B1 chain with I14V
notes: also called BAv81 (2)-Ig; BAv81-pIg18; not shown: PIg18: human IgG2 Fc, Ser at Fc positions 4, 5, 11 (native Cys)
B3: BAv83-Ig (Fc fusion)
chain: B1 chain with I14V, V22I
notes: also called BAv83 (2)-Ig; BAv83-pIg18; not shown: PIg18: human IgG2 Fc, Ser at Fc positions 4, 5, 11 (native Cys)
B4: BAv85-Ig (Fc fusion)
chain: B1 chain with P12H, I14V, V22A
notes: also called BAv85 (2)-Ig; BAv85-pIg18; not shown: PIg18: human IgG2 Fc, Ser at Fc positions 4, 5, 11 (native Cys)
B5: BAv9-1-5L-pIg18 (Fc fusion)
chain: B1 chain with P12H, V22L, K46G, T48G, N49G, A50S
notes: not shown: PIg18: human IgG2 Fc, Ser at Fc positions 4, 5, 11 (native Cys)
B6: BAv9-1-pIg22 (Fc fusion, human)
chain: B1 chain with P12H, V22L
notes: domain: Fc; not shown: PIg22: chimeric Fc, CH2 domain of PIg18 (human IgG2 derivative) and CH3 domain of human IgG1
B7: BAv9-1K46G-pIg22 (Fc fusion, human)
chain: B1 chain with P12H, V22L, K46G
notes: as for B6
B8: BAv9-1-5L-pIg22 (Fc fusion, human)
chain: B1 chain with P12H, V22L, K46G, T48G, N49G, A50S
modifications: not fully specified (C-terminus); cysteine pairing not given here; also: terminal Fc lysine may be cleaved off ([K278]del)
notes: domain: Fc; terminal lysine may be cleaved off; also called BAv9-1-5L-pIg22 [K278]del; not shown: PIg22: chimeric Fc, CH2 domain of PIg18 (human IgG2 derivative) and CH3 domain of human IgG1
B9: BAv9-1-[K46-A50]del-pIg22 (Fc fusion, human)
chain: AGQCSQNEYFDHLIRACIPCQLRCSSNTPPLTCQRYCNAGVTNSV
modifications: cysteine pairing not given here; also: fused to PIg22 Fc, not in chain
notes: domain: Fc; also called BAv9-1-des[K46-A50]-PIg22; not shown: PIg22: chimeric Fc, CH2 domain of PIg18 (human IgG2 derivative) and CH3 domain of human IgG1
B10: BAv70-Ig (Fc fusion)
chain: B1 chain with P12H, I18Q, V22L
notes: as for B5
B11: BAv67-Ig (Fc fusion)
chain: B1 chain with P12S, I14V, I18Q
notes: as for B5
B12: BAv77-Ig (Fc fusion)
chain: B1 chain with P12H, I14V, R23T
notes: as for B5
B13: BAv68-Ig (Fc fusion)
chain: B1 chain with P12S, I18Q
notes: as for B5
B14: BAv54-Ig (Fc fusion)
chain: B1 chain with P12H, I14S
notes: as for B5
B15: BAv76-Ig (Fc fusion)
chain: B1 chain with P12H, R23T
notes: as for B5
B16: BAv69-Ig (Fc fusion)
chain: B1 chain with P12H, I14V, I18Q, V22L
notes: as for B5

One may read the Kd as the constant that tells how readily two partners part at equilibrium.

Numbering of substitutions follows the chain as printed. Ends that are not written are not given here.

One assay deals with T1, FLAG-tagged human BAFF (human, UniProt Q9Y275 134-285, limits assumed).
T1 construct: used in BIACORE (Ex. 9) and KINEXA (Ex. 11); also called huBAFF
Kind of assay: KinExA. Here is the method: (§1) Equilibrium measurements were performed using FLAG-tagged, recombinant huBAFF and huAPRIL ligands. Fixed ligand concentrations of human BAFF or human APRIL were incubated with serial dilutions of the variant BCMA ECD-Ig fusion polypeptides, and free ligand was detected in a KINEXA 3200 Instrument. variant BCMA ECD-Ig fusion polypeptides were first diluted in equilibration buffer (1×PBS, pH 7.4, 1 mg/ml BSA) to a range of concentrations from 10 nM to 100 fM. The linear portion of the dilution series was typically 2-fold. Ligands were diluted in equilibration buffer to fixed concentrations ranging from 5 to 20 pM and then incubated with the variant BCMA-Ig dilutions in total reaction volumes ranging from 4.5 to 15 ml. Samples were incubated at room temperature for 48-72 hours to reach equilibrium. For each data point, a fresh column of 850 μl of bead slurry coated with Variant BAv-238475-Ig was introduced into the KINEXA flow cell. Equilibrated samples ranging from 1 to 5 ml reaction volume were injected at a flow rate of 0.25 ml/min. […] The DyLight 649 fluorescent signal was detected using the red filter set (620/30 nanometer excitation filter, 670/40 nanometer emission filter, 645 nanometer dichroic filter) on the KinExA instrument and converted to a voltage signal that was directly proportional to the concentration of free ligand in the equilibrated sample.
(§2) The standard kinetic exclusion assays and data analyses described above were performed on protein preparations of various variant BCMA ECD-Ig fusion polypeptides, as well as Z-TACI-Ig and [S40G]huBCMA ECD-Ig fusion polypeptides. FIG. 8A, FIG. 8B, and Table 4 summarize the binding data for representative variant BCMA ECD-Ig polypeptides and controls in molar concentrations of huBAFF or huAPRIL determined by KINEXA binding assays.
In general terms: In KinExA the mixture passes briefly over coated beads that capture the unbound partner.
Take B1: the Kd worked out at 0.842 pM and the “fold improvement over control” value was 268 fold.
The matching figures for B2: 0.246 pM and 917 fold.
For the molecule B3, the Kd stood at 0.254 pM and the “fold improvement over control” value stood at 890 fold.
In the case of B4, the Kd was determined as 0.0847 pM and the “fold improvement over control” value was 2660 fold.

A further assay has as its target T2, FLAG-tagged recombinant human APRIL (human, UniProt O75888 105-250).
T2 construct: KINEXA ligand; also called huAPRIL
T2 sequence: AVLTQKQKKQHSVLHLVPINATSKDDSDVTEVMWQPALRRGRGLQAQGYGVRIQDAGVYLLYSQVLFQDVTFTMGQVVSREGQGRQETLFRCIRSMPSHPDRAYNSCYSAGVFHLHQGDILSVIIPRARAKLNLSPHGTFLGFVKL
Kind of assay: KinExA. Here is the method: as §1, §2
B1: the equilibrium dissociation constant (Kd) was determined as 313 pM and the “fold improvement over control” value stood at 0.00051 fold.
For the molecule B2, the Kd came to 364 pM and the “fold improvement over control” value is 0.00044 fold.
Take B3: the dissociation constant Kd was 114 pM and the “fold improvement over control” value is 0.0014 fold.
As to B4, the Kd is 132 pM and the “fold improvement over control” value stood at 0.0012 fold.

The target of the next assay is T1, FLAG-tagged human BAFF. Kind of assay: KinExA. This is another data set of the same source. As to the method: as §1
(§3) Table 5 provides the selectivities of exemplary variant BCMA polypeptides with respect to BAFF and APRIL.
On to B1, for which the “Selectivity for huBAFF (KD APRIL/KD BAFF)” value came to 372 ratio.
B2: the “Selectivity for huBAFF (KD APRIL/KD BAFF)” value is 1480 ratio.
Still for that read-out and setting: the same measure for B3: 449 ratio.
The same measure, in the same setting: the same measure for B4: 1560 ratio.

Another assay concerns the target T2, FLAG-tagged recombinant human APRIL. Kind of assay: KinExA. The source holds these as a separate data set. Here is the method: as §1, §3
With B1, the “Selectivity for huAPRIL (KD BAFF/KD APRIL)” value turned out to be 0.003 ratio.
The same measure, in the same setting: as for B2, the figure is 0.001 ratio; as for B3, 0.002 ratio; as for B4, 0.001 ratio.

In a further assay the target is T1, FLAG-tagged human BAFF. Kind of assay: KinExA. This is another data set of the same source. As to the method:
as §1
(§4) The various fusion proteins described above were expressed and purified as described previously (Examples 2 and 3 for the CET1019AS based plasmids and Examples 7 and 8 for the pcDNA based plasmids). […] The BAv9-1-Ig Fc proteins typically exist in solution as a dimeric fusion protein. The purified fusion proteins were assayed for binding activity using BIACORE (Example 9) and KINEXA (Example 11) assays.
As for B5, the Kd amounted to 0.301 pM.
As for B6, the Kd came to 0.537 pM.
Same read-out and setting: as for B7, the figure is 0.484 pM.
In the case of B1, the dissociation constant (Kd) was 0.842 pM.
The same measure, in the same setting: as for B8, the figure is 0.864 pM; as for B2, 0.246 pM.
With B3, the Kd came out at 0.254 pM.
The same measure, in the same setting: as for B4, the figure is 0.085 pM; as for B9, 0.417 pM.

Another assay concerns the target T2, FLAG-tagged recombinant human APRIL. Kind of assay: KinExA. This is another data set of the same source. As to the method: as §1, §4
Turning to B5, the Kd came to 1.26 pM.
As to B6, the Kd worked out at 0.088 pM.
Still for that read-out and setting: as for B7, the figure is 0.32 pM; as for B1, 313 pM.
For the molecule B8, the dissociation constant Kd amounted to 0.611 pM.
On the same count and under the same terms, as for B2, the figure is 364 pM; as for B3, 114 pM.
For the molecule B4, the Kd was 132 pM.
The same measure, in the same setting: as for B9, the figure is 0.31 pM.

The target in another assay is T1, FLAG-tagged human BAFF. Kind of assay: BIACORE SPR. As to the method:
(§5) For human BAFF, cynomolgus monkey APRIL, and mouse APRIL measurements, mouse monoclonal antibody (IgG1) anti-FLAG M2 (Sigma Aldrich, Cat. No. F1804) was immobilized on CM3 sensor chips (GE Healthcare, Cat. No. BR-1005-41) according to the manufacturer's protocol. Antibody was diluted to 30 μg/ml in immobilization buffer (10 mM pH 5±0.20; GE Healthcare; GE Healthcare, Catalog No. BR-1003-51). […] Unreacted sites were quenched with 35 μl of 1M ethanolamine-HCl, pH 8.5 (GE Healthcare, GE Healthcare, Cat. No. BR-1000-50). This procedure typically yielded 3,000-4,000 response units (RU) of coupled antibody.
(§6) The fusion polypeptides were diluted in HBS-EP buffer and flowed over ligand-coated sensor chips. The variant BCMA-Ig and surrogate control fusion proteins were injected at three concentrations (1.5 nM, 15 nM, and 150 nM at 30 μl/min for 2 minutes per association phase) in a single binding cycle, followed by a 20 minute incubation with HBS-EP buffer containing no protein at the same flow rate. A similar protocol was followed for Z-TACI-Ig, except that the injections were at 4.5 nM, 45 nM, and 450 nM.
as §4
B5 displayed a dissociation constant (Kd) of 17.5 pM.
Molecule B6 had a Kd of 15.7 pM.
Same read-out and setting: as for B7, the figure is 16.5 pM; as for B1, 16.2 pM; as for B8, 16.5 pM.
As for B2, the dissociation constant (Kd) was 8.31 pM.
The same measure, in the same setting: as for B3, the figure is 8.09 pM; as for B4, 8.03 pM; as for B9, 20.4 pM.

In another assay the target is T3, FLAG-tagged cynomolgous APRIL (cynomolgus monkey, UniProt A0ACM8R0G4 110-250 (rhesus entry)).
T3 construct: FLAG-tagged, expressed with TPA signal peptide; also called cyAPRIL
T3 sequence: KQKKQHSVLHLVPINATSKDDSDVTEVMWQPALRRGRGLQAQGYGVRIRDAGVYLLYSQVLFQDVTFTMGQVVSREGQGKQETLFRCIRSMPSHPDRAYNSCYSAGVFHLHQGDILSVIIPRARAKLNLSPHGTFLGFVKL
Kind of assay: BIACORE SPR. Here is the method:
as §5, §6, §4
Regarding B5, the Kd came out at 42.5 pM.
The same measure, in the same setting: as for B6, the figure is 33.7 pM.
For the molecule B7, the Kd was found to be 45.6 pM.
Still for that read-out and setting: as for B1, the figure is 1450 pM; as for B8, 41.8 pM.
Same read-out and setting: as for B2, the figure is 2060 pM; as for B3, 707 pM.
Same read-out and setting: as for B4, the figure is 773 pM; as for B9, 41.8 pM.

The target of a further assay is T1, FLAG-tagged human BAFF. Kind of assay: BIACORE SPR; NB = No binding. Here is the method:
as §5, §6
(§7) Using available information from the structures and published literature, several residues in BAv8-10 were targeted for substitution with conserved as well as non-conserved residues and their effect on BAFF and APRIL binding was assessed by BIACORE.
For orientation: Surface plasmon resonance follows binding to a sensor surface in real time, without labels.
As to B10, the binding result is “no binding (tested: 150 nM)”.
Still for that read-out and setting: the same measure for B11: “no binding (tested: 150 nM)”; for B12: “no binding (tested: 150 nM)”.
Still for that read-out and setting: as for B13, the entry is “no binding (tested: 150 nM)”; as for B14, “no binding (tested: 150 nM)”.
Same read-out and setting: as for B15, the entry is “no binding (tested: 150 nM)”.
As for B16, the binding result is on record as “no binding (tested: 150 nM)”.

For the next assay, the target named is T3, FLAG-tagged cynomolgous APRIL. Kind of assay: BIACORE SPR; NB = No binding. Here is the method: as §5, §6, §7
Turning to B10, the binding result is on record as “no binding (tested: 150 nM)”.
With B11, the binding result is recorded as “no binding (tested: 150 nM)”.
The same measure, in the same setting: the same measure for B12: “no binding (tested: 150 nM)”; for B13: “no binding (tested: 150 nM)”; for B14: “no binding (tested: 150 nM)”.
The same measure, in the same setting: the same measure for B15: “no binding (tested: 150 nM)”; for B16: “no binding (tested: 150 nM)”.
